Here are results for 83 variants from the RNAGym collection of RNA variant scans (doi:10.1093/molbev/msab373).

B1: Azoarcus group I ribozyme (parent)
chain: GUGCCUUGCGCCGGGAAACCACGCAAGGGAUGGUGUCAAAUUCGGCGAAACCUAAGCGCCCGCCCGGGCGUAUGGCAACGCCGAGCCAAGCUUCGGCGCCUGCGCCGAUGAAGGUGUAGAGACUAGACGGCACCCACCUAAGGCAAACGCUAUGGUGAAGGCAUAGUCCAGGGAGUGGCGAAAGUCACACAAACCGG

The variants in the series derive from B1. Kind of series: reverse-splicing fitness (ratio to wild type); higher = more active; in vitro selection; Mg2+ level not given. The method, boiled down: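 An in vitro group I ribozyme library with randomized positions was T7-transcribed and gel-purified. In triplicate, 10 pmol RNA in EPPS pH 7.5 was reacted with 50 pmoles of a 30-nt RNA substrate for 1 h at 37 °C across several added MgCl2 levels (1–48 mM), then stopped with EDTA. Products were reverse transcribed from a substrate-complementary primer, PCR-amplified and sequenced (HiSeq 4000). Fitness is a variant's read proportion after selection over that before, normalised to wild type.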
On to C82G A111G C150U C169U U176G, for which the reverse-splicing fitness came to 0.00785.
Next, C82G A111G C150U C169U U176C: 0.0172.
Next, C82G A111G C150U C169U U176A: 0.0147; C82G A111G C150G C169G: 0.00817.
For C82G A111G C150G C169U, the reverse-splicing fitness was found to be 0.0107.
Next, C82G A111G C150G C169A: 0.00975.
Next, C82G A111G A145U C150U C169G U176A: 0.0142; C82G A111G A145U C150U C169G U176G: 0.00611; C82G A111G A145U C150U C169G U176C: 0.0152.
Take C82G A111G C169G U176A: the reverse-splicing fitness is 0.0197.
Next, C82G A111G C169G U176C: 0.0239.
Next, C82G A111G C169G U176G: 0.0047; C82G A111U A120C A145U C150G U176A: 0.0058.
Next, C82G A111U A120C A145U C150G U176G: 0.00406; C82G A111U A120C A145U C150G U176C: 0.00903.
For C82G A111U A120C A145C C150G C169U U176C, the reverse-splicing fitness is 0.0113.
As to C82G A111U A120C A145C C150G C169U U176A, the reverse-splicing fitness came out at 0.00676.
Next, C82G A111U A120C A145C C150G C169U U176G: 0.00524.
Next, C82G A111U A120C A145U C150U C169A U176A: 0.0178; C82G A111U A120C A145U C150U C169A U176C: 0.0135; C82G A111U A120C A145U C150U C169A U176G: 0.00636.
Next, C82G A111U A120C A145U: 0.0517.
Consider C82G A111U A120C A145G, for which the reverse-splicing fitness was determined as 0.0543.
In the case of C82G A111U A120C A145C, the reverse-splicing fitness worked out at 0.0408.
Next, C82G A111G A145U C169G: 0.0101; C82G A111G A145U C169A: 0.00634.
Next, C82G A111G A145U C169U: 0.0127; C82G A111U A120C A145G C169A U176A: 0.0222; C82G A111U A120C A145G C169A U176G: 0.00615.
Next, C82G A111U A120C A145G C169A U176C: 0.0267; C82G A111U A120C A145C C150G C169A U176C: 0.00917.
For the variant C82G A111U A120C A145C C150G C169A U176G, the reverse-splicing fitness amounted to 0.00634.
For C82G A111U A120C A145C C150G C169A U176A, the reverse-splicing fitness stood at 0.0101.
Take C82G A111U A120C A145C C169G U176G: the reverse-splicing fitness worked out at 0.00667.
C82G A111U A120C A145C C169G U176C: the reverse-splicing fitness stood at 0.0236.
Next, C82G A111U A120C A145C C169G U176A: 0.0301.
Take C82G A111U A120C A145C C169A U176C: the reverse-splicing fitness worked out at 0.00941.
Next, C82G A111U A120C A145C C169A U176A: 0.0193; C82G A111U A120C A145C C169A U176G: 0.00544.
Next, C82G A111G C150U U176G: 0.0512.
For C82G A111G C150U U176A, the reverse-splicing fitness was 0.128.
Next, C82G A111G C150U U176C: 0.144; C82G A111U A120C A145G C150A C169A U176A: 0.02; C82G A111U A120C A145G C150A C169A U176C: 0.026.
As for C82G A111U A120C A145G C150A C169A U176G, the reverse-splicing fitness amounted to 0.00968.
Consider C82G A111U A120C A145G C150U C169U U176C, for which the reverse-splicing fitness is 0.0146.
Next, C82G A111U A120C A145G C150U C169U U176G: 0.00687; C82G A111U A120C A145G C150U C169U U176A: 0.0137; C82G A111G A145U C150A U176C: 0.0339.
Next, C82G A111G A145U C150A U176A: 0.03; C82G A111G A145U C150A U176G: 0.0136.
Next, C82G A111G A145U C169A U176G: 0.0052; C82G A111G A145U C169A U176A: 0.0133; C82G A111G A145U C169A U176C: 0.0135.
C82G A111U A120C A145U C150G: the reverse-splicing fitness amounted to 0.0103.
Take C82G A111U A120C A145U C150U: the reverse-splicing fitness is 0.0337.
Next, C82G A111U A120C A145U C150A: 0.0104; C82G A111G A145G C150U U176C: 0.213.
With C82G A111G A145G C150U U176G, the reverse-splicing fitness turned out to be 0.068.
Consider C82G A111G A145G C150U U176A, for which the reverse-splicing fitness stood at 0.174.
Next, C82G A111G C169G: 0.00859; C82G A111G C169U: 0.0143; C82G A111G C169A: 0.00879.
Next, C82G A111G A145G C150U C169A: 0.0104; C82G A111G A145G C150U C169U: 0.0137.
As to C82G A111G A145G C150U C169G, the reverse-splicing fitness came to 0.0106.
Next, C82G A111G A145G C169A: 0.00875.
Next, C82G A111G A145G C169G: 0.0101; C82G A111G A145G C169U: 0.0129; C82G A111U A120C A145C C150U C169U U176A: 0.0127.
Next, C82G A111U A120C A145C C150U C169U U176C: 0.0118; C82G A111U A120C A145C C150U C169U U176G: 0.00678; C82G A111G U176G: 0.0956.
As for C82G A111G U176A, the reverse-splicing fitness was determined as 0.277.
Next, C82G A111G U176C: 0.279; C82G A111G C150A C169G U176C: 0.0228; C82G A111G C150A C169G U176A: 0.0217.
Next, C82G A111G C150A C169G U176G: 0.00751; C82G A111U A120C A145C C150A C169U: 0.01; C82G A111U A120C A145C C150A C169A: 0.01.
With C82G A111U A120C A145C C150A C169G, the reverse-splicing fitness came to 0.00886.
Next, C82G A111G A145U C150U U176G: 0.0614; C82G A111G A145U C150U U176A: 0.154.
